Columns and labels:
Experiment in all cases: cell-based or functional assay
[1] = biological target: HIV-1 Env of pseudovirus 211-9 (HIV-1)
[2] = biological target: HIV-1 Env of pseudovirus 246F C1G (HIV-1)
[3] = biological target: HIV-1 Env of pseudovirus 263-8 (HIV-1)
[4] = biological target: HIV-1 Env of pseudovirus 3365.v2.c2 (HIV-1)
[5] = biological target: HIV-1 Env of pseudovirus 620345.c01 (HIV-1)
[6] = biological target: HIV-1 Env of pseudovirus 9004SS_A3_4 (HIV-1)
[7] = biological target: HIV-1 Env of pseudovirus AC10.0.29 (HIV-1)
[8] = biological target: HIV-1 Env of pseudovirus BJOX010000.06.2 (HIV-1)
[9] = biological target: HIV-1 Env of pseudovirus BJOX025000.01.1 (HIV-1)
[10] = biological target: HIV-1 Env of pseudovirus C1080.c03 (HIV-1)
[11] = biological target: HIV-1 Env of pseudovirus C3347.c11 (HIV-1)
[12] = biological target: HIV-1 Env of pseudovirus CNE19 (HIV-1)
[13] = biological target: HIV-1 Env of pseudovirus CNE21 (HIV-1)
[14] = biological target: HIV-1 Env of pseudovirus CNE52 (HIV-1)
[15] = biological target: HIV-1 Env of pseudovirus Ce1086_B2 (HIV-1)
[16] = biological target: HIV-1 Env of pseudovirus HIV-0013095-2.11 (HIV-1)
[17] = biological target: HIV-1 Env of pseudovirus HIV-16055-2.3 (HIV-1)
[18] = biological target: HIV-1 Env of pseudovirus P0402_c2_11 (HIV-1)
[19] = biological target: HIV-1 Env of pseudovirus PVO.4 (HIV-1)
[20] = biological target: HIV-1 Env of pseudovirus Q769.d22 (HIV-1)
[21] = biological target: HIV-1 Env of pseudovirus SC05_8C11_2344 (HIV-1)
[22] = biological target: HIV-1 Env of pseudovirus SC422661.8 (HIV-1)
[23] = biological target: HIV-1 Env of pseudovirus T255-34 (HIV-1)
[24] = biological target: HIV-1 Env of pseudovirus T257-31 (HIV-1)
[25] = biological target: HIV-1 Env of pseudovirus THRO4156.18 (HIV-1)
[26] = biological target: HIV-1 Env of pseudovirus TRJO4551.58 (HIV-1)
[27] = biological target: HIV-1 Env of pseudovirus ZM135M.PL10a (HIV-1)
[28] = biological target: HIV-1 Env of pseudovirus ZM197M.PB7 (HIV-1)
[29] = biological target: HIV-1 Env of pseudovirus ZM247v1(Rev-) (HIV-1)

With N49P7 (antibody) the neutralization IC50 [1] was 0.22 µg/mL, the neutralization IC80 [1] was 0.767 µg/mL and the neutralization MPI [1] was 100. It also gave a neutralization IC50 [2] of 0.094 µg/mL, a neutralization IC80 [2] of 0.255 µg/mL and a neutralization MPI [2] of 100. The neutralization IC50 [3] was 0.056 µg/mL, the neutralization IC80 [3] was 0.201 µg/mL and the neutralization MPI [3] was 100. It also gave a neutralization IC50 [4] of 0.07 µg/mL, a neutralization IC80 [4] of 0.186 µg/mL and a neutralization MPI [4] of 100. The neutralization IC50 [5] was 23.2 µg/mL, the neutralization IC80 [5] was 47.9 µg/mL and the neutralization MPI [5] was 82. The neutralization IC50 [6] was 0.125 µg/mL, the neutralization IC80 [6] was 0.39 µg/mL and the neutralization MPI [6] was 100. The neutralization IC50 [7] was 5.03 µg/mL, the neutralization IC80 [7] was 36.7 µg/mL and the neutralization MPI [7] was 89. It also gave a neutralization IC50 [8] of 0.085 µg/mL, a neutralization IC80 [8] of 0.592 µg/mL and a neutralization MPI [8] of 100. The neutralization IC50 [9] was 0.038 µg/mL, the neutralization IC80 [9] was 0.236 µg/mL and the neutralization MPI [9] was 100. It also gave a neutralization IC50 [10] of 0.114 µg/mL, a neutralization IC80 [10] of 0.765 µg/mL and a neutralization MPI [10] of 100. It also gave a neutralization IC50 [11] of 0.024 µg/mL, a neutralization IC80 [11] of 0.067 µg/mL and a neutralization MPI [11] of 100. For the same substance, the neutralization IC50 [12] was 0.009 µg/mL, the neutralization IC80 [12] was 0.041 µg/mL and the neutralization MPI [12] was 100. The neutralization IC50 [13] was 0.756 µg/mL, the neutralization IC80 [13] was 6.02 µg/mL and the neutralization MPI [13] was 97. The neutralization IC50 [14] was 0.008 µg/mL, the neutralization IC80 [14] was 0.023 µg/mL and the neutralization MPI [14] was 100. The neutralization IC50 [15] was 0.089 µg/mL, the neutralization IC80 [15] was 0.568 µg/mL and the neutralization MPI [15] was 100. It also gave a neutralization IC50 [16] of 0.073 µg/mL, a neutralization IC80 [16] of 0.253 µg/mL and a neutralization MPI [16] of 100. For the same substance, the neutralization IC50 [17] was 0.057 µg/mL, the neutralization IC80 [17] was 0.28 µg/mL and the neutralization MPI [17] was 100. The neutralization IC50 [18] was 0.014 µg/mL, the neutralization IC80 [18] was 0.061 µg/mL and the neutralization MPI [18] was 100. It also gave a neutralization IC50 [19] of 0.107 µg/mL, a neutralization IC80 [19] of 0.365 µg/mL and a neutralization MPI [19] of 100. It also gave a neutralization IC50 [20] of 0.025 µg/mL, a neutralization IC80 [20] of 0.111 µg/mL and a neutralization MPI [20] of 100. The neutralization IC50 [21] was 0.164 µg/mL, the neutralization IC80 [21] was 0.403 µg/mL and the neutralization MPI [21] was 100. For the same substance, the neutralization IC50 [22] was 0.114 µg/mL, the neutralization IC80 [22] was 0.32 µg/mL and the neutralization MPI [22] was 100. It also gave a neutralization IC50 [23] of 0.053 µg/mL, a neutralization IC80 [23] of 0.262 µg/mL and a neutralization MPI [23] of 100. The neutralization IC50 [24] was 0.158 µg/mL, the neutralization IC80 [24] was 0.619 µg/mL and the neutralization MPI [24] was 100. The neutralization IC50 [25] was 2.34 µg/mL, the neutralization IC80 [25] was 12.4 µg/mL and the neutralization MPI [25] was 99. It also gave a neutralization IC50 [26] of 0.104 µg/mL, a neutralization IC80 [26] of 0.351 µg/mL and a neutralization MPI [26] of 100. The neutralization IC50 [27] was 0.2 µg/mL, the neutralization IC80 [27] was 0.96 µg/mL and the neutralization MPI [27] was 100. The neutralization IC50 [28] was 0.109 µg/mL, the neutralization IC80 [28] was 0.347 µg/mL and the neutralization MPI [28] was 100. It also gave a neutralization IC50 [29] of 0.062 µg/mL, a neutralization IC80 [29] of 0.214 µg/mL and a neutralization MPI [29] of 100.

For N49P7.1 (antibody), the neutralization IC50 [1] was 0.34 µg/mL, the neutralization IC80 [1] was 1.17 µg/mL and the neutralization MPI [1] was 100. The neutralization IC50 [2] was 0.049 µg/mL, the neutralization IC80 [2] was 0.165 µg/mL and the neutralization MPI [2] was 100. It also gave a neutralization IC50 [3] of 0.104 µg/mL, a neutralization IC80 [3] of 0.392 µg/mL and a neutralization MPI [3] of 100. For the same substance, the neutralization IC50 [4] was 0.088 µg/mL, the neutralization IC80 [4] was 0.289 µg/mL and the neutralization MPI [4] was 100. For the same substance, the neutralization IC50 [5] was > 50 µg/mL, the neutralization IC80 [5] was > 50 µg/mL and the neutralization MPI [5] was 47. For the same substance, the neutralization IC50 [6] was 0.221 µg/mL, the neutralization IC80 [6] was 0.841 µg/mL and the neutralization MPI [6] was 100. The neutralization IC50 [7] was 5.31 µg/mL, the neutralization IC80 [7] was 46.8 µg/mL and the neutralization MPI [7] was 85. For the same substance, the neutralization IC50 [8] was 0.132 µg/mL, the neutralization IC80 [8] was 0.623 µg/mL and the neutralization MPI [8] was 100. The neutralization IC50 [9] was 0.057 µg/mL, the neutralization IC80 [9] was 0.378 µg/mL and the neutralization MPI [9] was 100. For the same substance, the neutralization IC50 [10] was 0.144 µg/mL, the neutralization IC80 [10] was 1.05 µg/mL and the neutralization MPI [10] was 100. The neutralization IC50 [11] was 0.048 µg/mL, the neutralization IC80 [11] was 0.161 µg/mL and the neutralization MPI [11] was 100. It also gave a neutralization IC50 [12] of 0.027 µg/mL, a neutralization IC80 [12] of 0.128 µg/mL and a neutralization MPI [12] of 100. The neutralization IC50 [13] was 1.58 µg/mL, the neutralization IC80 [13] was 12.2 µg/mL and the neutralization MPI [13] was 96. For the same substance, the neutralization IC50 [14] was 0.021 µg/mL, the neutralization IC80 [14] was 0.058 µg/mL and the neutralization MPI [14] was 100. The neutralization IC50 [15] was 0.121 µg/mL, the neutralization IC80 [15] was 0.742 µg/mL and the neutralization MPI [15] was 99. For the same substance, the neutralization IC50 [16] was 0.105 µg/mL, the neutralization IC80 [16] was 0.374 µg/mL and the neutralization MPI [16] was 100. The neutralization IC50 [17] was 0.088 µg/mL, the neutralization IC80 [17] was 0.318 µg/mL and the neutralization MPI [17] was 100. For the same substance, the neutralization IC50 [18] was 0.029 µg/mL, the neutralization IC80 [18] was 0.115 µg/mL and the neutralization MPI [18] was 100. For the same substance, the neutralization IC50 [19] was 0.124 µg/mL, the neutralization IC80 [19] was 0.421 µg/mL and the neutralization MPI [19] was 100. For the same substance, the neutralization IC50 [20] was 0.044 µg/mL, the neutralization IC80 [20] was 0.163 µg/mL and the neutralization MPI [20] was 100. For the same substance, the neutralization IC50 [21] was 0.189 µg/mL, the neutralization IC80 [21] was 0.688 µg/mL and the neutralization MPI [21] was 100. It also gave a neutralization IC50 [22] of 0.125 µg/mL, a neutralization IC80 [22] of 0.417 µg/mL and a neutralization MPI [22] of 100. For the same substance, the neutralization IC50 [23] was 0.094 µg/mL, the neutralization IC80 [23] was 0.447 µg/mL and the neutralization MPI [23] was 100. For the same substance, the neutralization IC50 [24] was 0.209 µg/mL, the neutralization IC80 [24] was 1.04 µg/mL and the neutralization MPI [24] was 100. It also gave a neutralization IC50 [25] of 3.07 µg/mL, a neutralization IC80 [25] of 12.6 µg/mL and a neutralization MPI [25] of 98. For the same substance, the neutralization IC50 [26] was 0.156 µg/mL, the neutralization IC80 [26] was 0.529 µg/mL and the neutralization MPI [26] was 100. It also gave a neutralization IC50 [27] of 0.314 µg/mL, a neutralization IC80 [27] of 1.11 µg/mL and a neutralization MPI [27] of 99. It also gave a neutralization IC50 [28] of 0.144 µg/mL, a neutralization IC80 [28] of 0.539 µg/mL and a neutralization MPI [28] of 100. The neutralization IC50 [29] was 0.038 µg/mL, the neutralization IC80 [29] was 0.176 µg/mL and the neutralization MPI [29] was 100.

— patent US20230002480A1
